Results reported in article PMC4569848 (Nature Communications, 2015).
Numbering of substitutions follows the chain as printed. Names may count otherwise. Each block holds one binder with its values, some of them ahead of it.

Legend:
Conditions in all cases: both partners purified
GST-clathrin 1–494 [1] = molecular target: T1, GST-clathrin 1–494 (human, UniProt Q00610 1-494); assay: pull-down; GST-clathrin pull-down of β-arrestin-1 with V2Rpp at protein:V2Rpp ratios 1:0, 1:0.03, 1:0.3, 1:3 and 1:9; western blot for β-arrestin-1, densitometry
T1 construct: clathrin, human, residues 1-494, in pGEX-6P1; source: E. coli BL21, purified (glutathione-Sepharose 4B, eluted with GSH); not shown: GST, N-terminal, kept
T1 sequence (looked up): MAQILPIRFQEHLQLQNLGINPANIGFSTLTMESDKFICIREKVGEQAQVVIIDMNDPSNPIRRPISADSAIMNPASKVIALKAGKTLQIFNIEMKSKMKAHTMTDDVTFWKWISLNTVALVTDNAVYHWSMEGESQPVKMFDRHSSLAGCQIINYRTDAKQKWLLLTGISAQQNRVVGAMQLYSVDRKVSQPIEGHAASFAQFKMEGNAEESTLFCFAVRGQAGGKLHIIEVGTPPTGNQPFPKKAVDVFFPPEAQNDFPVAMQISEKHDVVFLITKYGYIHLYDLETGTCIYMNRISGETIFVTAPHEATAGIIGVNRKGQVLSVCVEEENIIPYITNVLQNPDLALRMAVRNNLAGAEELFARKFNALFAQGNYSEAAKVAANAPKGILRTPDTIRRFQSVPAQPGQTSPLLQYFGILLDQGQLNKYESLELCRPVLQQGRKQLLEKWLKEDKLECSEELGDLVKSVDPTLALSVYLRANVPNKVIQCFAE

[2] = molecular target: T2, GST-SRC3D (SRC-SH2-SH3-kinase-three domain) (chicken, UniProt P00523 87-531); assay: pull-down; GST pull-down; 300 nM β-arrestin-1 first mixed with phosphopeptide (equal concentration) 30 min at room temperature in 20 mM Tris-HCl pH 8.0, 150 mM NaCl, 2 mM EDTA, 1 mM DTT; then 10 μM GST-clathrin or GST-SRC 1 h; GST beads 2 h at 4 °C; blot with a β-arrestin-1 antibody
T2 construct: c-SRC, chicken, residues 87-531, containing SH3, SH2 and catalytic domains; source: E. coli BL21, purified (glutathione-Sepharose 4B, eluted with GSH); not shown: GST, N-terminal, kept

GST-clathrin 1–494 [3] = molecular target: T1, GST-clathrin 1–494; assay: pull-down; β-arrestin-1-F2Y mutants (300 nM) incubated with equal concentrations of GST-clathrin and V2R-phospho-peptide (V2Rpp), or without peptide; pulled down with GST beads; bound β-arrestin-1 detected by western blot with a β-arrestin-1 antibody

binding result (GST-clathrin 1–494 [1]): binds
B1: β-arrestin-1 wild type (natural protein, bovine, UniProt P17870 1-418, looked up)
chain: MGDKGTRVFKKASPNGKLTVYLGKRDFVDHIDLVEPVDGVVLVDPEYLKERRVYVTLTCAFRYGREDLDVLGLTFRKDLFVANVQSFPPAPEDKKPLTRLQERLIKKLGEHAYPFTFEIPPNLPCSVTLQPGPEDTGKACGVDYEVKAFCAENLEEKIHKRNSVRLVIRKVQYAPERPGPQPTAETTRQFLMSDKPLHLEASLDKEIYYHGEPISVNVHVTNNTNKTVKKIKISVRQYADICLFNTAQYKCPVAMEEADDTVAPSSTFCKVYTLTPFLANNREKRGLALDGKLKHEDTNLASSTLLREGANREILGIIVSYKVKVKLVVSRGGLLGDLASSDVAVELPFTLMHPKPKEEPPHREVPEHETPVDTNLIELDTNDDDIVFEDFARQRLKGMKDDKEEEEDGTGSPRLNDR
notes: β-arrestin-1, bovine, full-length wild-type cDNA in pET22b; also called β-arrestin-1-WT; WT; source: E. coli BL21, purified (Ni-NTA, Superdex 200)

binding result [2]: binds
B2: β-arrestin-1 (bovine, full-length wild type, C-terminal His tag) (natural protein, UniProt P17870 1-418, looked up)
chain: B1 chain
notes: β-arrestin-1, bovine, full-length wild-type cDNA in pET22b; also called native β-arrestin-1; wild-type β-arrestin-1; source: E. coli BL21, purified (Ni-NTA, Superdex 200)

binding result (GST-clathrin 1–494 [3]): binds
B3: β-arrestin-1-V8-F2Y (natural protein, bovine, UniProt P17870 1-418, looked up)
chain: B1 chain with V8Y
modifications: 3,5-difluorotyrosine (F2Y) at 8
notes: β-arrestin-1, bovine, full-length cDNA in pET22b, amber codon at V8 read as F2Y; source: E. coli BL21 (DE3) with pEVOL-F2YRS and F2Y in the medium, purified (Ni-NTA, gel filtration)
